Two molecules from US7482133B2, “Catalytic domains of β(1,4)-galactosyltransferase I having altered donor and acceptor specificities, domains that promote in vitro protein folding, and methods for their use” (The United States of America as represented by the …, priority 2003, dated 2009) can be followed below.

Data set [1] can be described thus: β4Gal-T1 enzyme assay of in vitro folded CD and SRCD proteins. The conditions noted are these: folded under condition I. It is filed as biochemical. As for the experimental part:
β4Gal-T1 Enzyme Assays: The in vitro assay for β4Gal-T1 enzyme activity was performed as described (Boeggeman et al., Glycobiology, 12:395-407 (2002)). The ^3H-labeled-UDP-Gal was used as sugar donor and GlcNAc as the sugar acceptor. A reaction without GlcNAc was used as a control.
Binding of recombinant proteins to UDP-affinity column: UDP-agarose was used to bind the active proteins at 4° C. Columns containing 1 ml bed volume of UDP-agarose were pre-equilibrated with 10 ml of 25 mM cacodylic buffer, pH 7.6, containing 25 mM MnCl2. The renatured protein solutions (0.5 mg) were adjusted to the pre-equilibration buffer conditions and applied to the columns. After loading the sample, the pass-through was re-cycled. It was then analyzed for the unbound protein by SDS-PAGE. The columns were washed 3× with 1-ml portions of equilibration buffer. The bound protein was eluted with the elution buffer consisting of 25 mM cacodylic buffer, pH 7.6, 25 mM EDTA and 1 M NaCl. Fractions of 0.5 ml were collected from the columns, and aliquots were analysed by SDS-PAGE. For enzymatic analysis the appropriate fractions were pooled and dialysed against 50 mM Tris-HCl pH 8.0 at 4° C. […]

Data set [2] in a line: Stability of the folded recombinant proteins. The format is physicochemical. The conditions noted are these: after folding and purification from inclusion bodies. The method, then: Mutation of the stem region of bovine β4Gal-T1 to inhibit proteolysis: The wild-type bovine SRCDβ4Gal-T1, which has Ser at position 96, was expressed in E. coli. […] The protein was electroblotted to polyvinylidene difluoride membrane, and the N-terminal sequence of the cleaved fragment was determined by Edman degradation at the Protein Chemistry Laboratory, NCI-Frederick. The N-terminal sequence of the fragment was determined as SRAPSNLD (SEQ ID NO: 21). This corresponds to the cleavage at Ser96 within the sequence region KPR^96SRAPSNLD (SEQ ID NO: 22). To prevent this proteolytic digestion within the stem region, we now constructed a mutant substituting Ala in place of Ser96. This prevented the cleavage within the stem region of bovine β4Gal-T1 keeping the recombinant protein intact for a long period of time. Even though, the experimental results described in this study are with the mutant bovine S96A-SRCDβ4Gal-T1 (FIG. 3A), for the sake of convenience in abbreviation this protein is simply referred to as bovine SRCDβ4Gal-T1.

A short description of data set [3]: Gal-T specific activity assay. It is filed as biochemical. The following applies: donor 500 μM; acceptor β-benzyl-GlcNAc 25 mM (10 mM for C342T); saturating conditions. The method, then:
(§1) For example, the galactose and N-acetylgalactosyltransferase activity of β(1,4)-galactosyltransferase I can be determined using the following assay conditions. […], 10 mM MnCl2, 10 mM Tris-HCl (pH 8.0), 500 μM UDP-Gal or UDP-GalNAc, and 20 ng of β(1,4)-galactosyltransferase I can be incubated at 37° C. for 10 minutes to promote coupling of a donor sugar to an acceptor sugar. While these conditions are provided as an example, it is understood that many other conditions may be used to chemically link a donor to an acceptor using the altered catalytic domains of the invention.
(§2) Gal-T and GalNAc-T Enzyme Assays: The protein concentrations were measured using the Bio-Rad protein assay kit, based on the method of Bradford and further verified on SDS gel. […] The activities were measured using UDP-Gal or UDP-GalNAc as sugar nucleotide donors, and GlcNAc and Glc as the acceptor sugars. For the specific activity measurements, […], 10 mM MnCl2, 10 mM Tris-HCl, pH 8.0, 500 μM UDP-Gal or UDP-GalNAc, 20 ng of Gal-T1, and 0.5 μCl of [^3H]UDP-Gal or [^3H]UDP-GalNAc was used for each Gal-T or GalNAc-T reaction. The incubation was carried out at 37° C. for 10 min. […] The column was washed successfully with 300, 400, and 500 μl of water, and the column flow-through was diluted with Biosafe scintillation fluid; radioactivity was measured with a Beckman counter. A reaction without the acceptor sugar was used as a control. A similar assay was carried out to measure the GalNAc-T activity with Glc and other acceptors in the presence of 50 μM bovine LA (Sigma).

A short description of data set [4]: GalNAc-T specific activity assay. The format is biochemical. As for the experimental part:
as §1, §2

The nature of data set [5]: GlcNAc-T specific activity assay. It is filed as biochemical. The following applies: donor 500 μM; acceptor β-benzyl-GlcNAc 25 mM.
A short description of data set [6]: Two-substrate kinetic constants, Gal-T reaction. It is filed as biochemical. An excerpt:
(§3) Studies for Determining the Kinetic Constants: The true Km of the donor (KA) and of the acceptor (KB), the dissociation constant of the donor, Ki(a), and kcat were obtained using two-substrate analyses and the primary plots of five concentrations of donor (UDP-Gal or UDP-GalNAc) and five concentrations of acceptor, and the corresponding secondary plots of the intercepts and slopes. Initial rate conditions were linear with respect to time. A suitable range of donor and acceptor concentrations were chosen, which allowed an accurate Michaelis-Menten plot to be derived. The data were also analyzed for a general two-substrate system using the following equations (Zhang et al., Glycobiology, 9:815-822 (1999)) with the software EnzFitter, a Biosoft nonlinear curve-fitting program for Windows.
(§4) [formula] Here v is the initial velocity and the rate equation for sequential symmetrical initial velocity pattern associated with Equation 1, an ordered or random equilibrium mechanism in which substrate A dissociates well from the E-S complex with a dissociation constant of Ki(a). Equation 2 is for asymmetric initial velocity pattern for a double displacement or “ping-pong” mechanism. The kinetic parameters KA, KB, Ki(a), and Vmax, were obtained from the fitted curves using the above rate equations. The graphical method and EnzFitter program gave very similar kinetic parameters. In the N-acetylgalactosamine transferase (GalNAc-T) assay, the maximum substrate concentrations used for UDP-GalNAc and GlcNAc were 1 and 200 mM, respectively. However, in the galactose transferase (Gal-T) assay, because of the limited solubility of GlcNAc in water, the concentration of GlcNAc was limited to no more than […] (which is 2-fold higher than its Km value), whereas up to 300 μM UDP-Gal were used.

Data set [7] is described as follows: Two-substrate kinetic constants, GalNAc-T reaction. The format is biochemical.
Excerpt: as §3, §4

A short description of data set [8]: GalNAc-T activity in absence and presence of LA, acceptor GlcNAc. The format is biochemical. The conditions noted are these: acceptor GlcNAc 100 mM, 500 μM UDP-GalNAc, 37° C., 10 minutes. The method, then: (§5) Gal-T and GalNAc-T Enzyme Assays: The protein concentrations were measured using the Bio-Rad protein assay kit, based on the method of Bradford and further verified on SDS gel. […] The activities were measured using UDP-Gal or UDP-GalNAc as sugar nucleotide donors, and GlcNAc and Glc as the acceptor sugars. For the specific activity measurements, a 100-μl incubation mixture containing 50 mM β-benzyl-GlcNAc, 10 mM MnCl2, 10 mM Tris-HCl, pH 8.0, 500 μM UDP-Gal or UDP-GalNAc, 20 ng of Gal-T1, and 0.5 μCl of [^3H]UDP-Gal or [^3H]UDP-GalNAc was used for each Gal-T or GalNAc-T reaction. The incubation was carried out at 37° C. for 10 min. […] The column was washed successfully with 300, 400, and 500 μl of water, and the column flow-through was diluted with Biosafe scintillation fluid; radioactivity was measured with a Beckman counter. A reaction without the acceptor sugar was used as a control. […]

Data set [9] in a line: GalNAc-T activity in absence and presence of LA, acceptor Glc. The format is biochemical. The conditions noted are these: for GalNAc-T activity: acceptor Glc 100 mM, 500 μM UDP-GalNAc, 37° C., 10 minutes. As for the experimental part: as §5
The nature of data set [10]: GalNAc-T activity in absence and presence of LA, acceptor Glucosamine. The following applies: acceptor Glucosamine 100 mM, 500 μM UDP-GalNAc, 37° C., 10 minutes. It is filed as biochemical. The method, then: as §5
Where [11] appears, read: UDP-N-acetylgalactosamine → GlcNAc.

B1: human SRCDβ4Gal-T1: human stem region/catalytic domain β4Gal-T1, not mutated (protein, listed as Homo sapiens)
chain: RDLSRLPQLVGVSTPLQGGSNSAAAIGQSSGDLRTGGARPPPPLGASSQPRPGGDSSPVVDSGPGPASNLTSVPVPHTTALSLPACPEESPLLVGPMLIEFNMPVDLELVAKQ
Consider B1, for which, in data set [1], the “specific activity after elution from UDP-agarose versus before loading” value is 6 fold. The “stability against cleavage within the stem region” value in [2] was “only after long periods of time”.

B2: Y289L_C342T: bovine Gal-T1 catalytic domain (residues 130-402), Tyr-289 exchanged with Leu, with Cys-342 to Thr mutation (protein)
chain: SLTACPEESPLLVGPMLIEFNIPVDLKLIEQQNPKVKLGGRYTPMDCISPHKVAIIILFRNRQEHLKYWLYYLHPMVQRQQLDYGIYVINQAGESMFNRAKLLNVGFKEALKDYDYNCFVFSDVDLIPMNDHNTYRCFSQPRHISVAMDKFGFSLPYVQLFGGVSALSKQQFLSINGFPNNYWGWGGEDDDIYNRLAFRGMSVSRPNAVIGKTRMIRHSRDKKNEPNPQRFDRIAHTKETMLSDGLNSLTYMVLEVQRYPLYTKITVDIGTPS
Take B2: the “UDP-galactose → GlcNAc Gal-T activity” value in data set [3] worked out at 16.2 pmol/min/ng. Further, the “galactose transferase versus N-acetylgalactosyltransferase activity” value in [4] (comparison in words (Table III, FIG. 1)) was “equally strong galactose transferase and N-acetylgalactosyltransferase activities”. Moreover, the “UDP-GalNAc → GlcNAc GalNAc-T activity” value in data set [4] (donor 500 μM, acceptor β-benzyl-GlcNAc 25 mM) is 27.3 pmol/min/ng. Further, the “UDP-GlcNAc → GlcNAc GlcNAc-T activity” value in data set [5] was 8.2 pmol/min/ng. Further, in data set [6] (Gal-T1 reaction), the “catalytic constant (kcat) relative to wild type” value was “comparable with the wild type”. The “Km for the acceptor relative to wild-type Gal-T1” value in [6] (Gal-T reaction) is recorded as ~20 fold. Besides, the “KA (true Km of the donor), Gal-T” value in [6] (UDP-galactose → GlcNAc) was 75 (1) μM. The molecule further had a KB (true Km of the acceptor), Gal-T in data set [6] (UDP-galactose → GlcNAc) of 198 mM. This molecule returned a Kcat., Gal-T in [6] (UDP-galactose → GlcNAc, unit assumed) of 8.5 s⁻¹. In data set [7] (GalNAc reaction), the “catalytic constant (kcat), fold higher” value was 3-5 fold. In addition, the “KA (true Km of the donor), GalNAc-T” value in data set [7] (setting [11]) is reported as 854 (8) μM. The “KB (true Km of the acceptor), GalNAc-T” value in [7] (setting [11]) is 51 (1) mM. In data set [7] (setting [11]), the “Kcat., GalNAc-T” value was found to be 4.0. Moreover, the GalNAc-T activity in data set [8] (+LA 55 μM) came out at 3.3 pmol/min/ng; in data set [8] (−LA), 31.3 pmol/min/ng; in data set [9] (+LA 55 μM), 34.8 pmol/min/ng; in data set [9] (−LA), 2.6 pmol/min/ng; in [10] (+LA 55 μM), 5.0 pmol/min/ng; in [10] (−LA), 1.8 pmol/min/ng. In data set [9] (in the presence of LA), the “acceptor preference of GalNAc transfer” value is recorded as “transfer GalNAc preferably to Glc rather than to GlcNAc”.
